This note sets out measurements from paper PMC9133088.

Series [1] is described as follows: near-UV circular dichroism. As to conditions: glycan lost; control: WT LARS1, same OGT1 condition. For orientation: Circular dichroism is widely used to follow secondary structure.
The nature of series [2]: lysosomal fractionation, knock-in cells, glucose starvation. As to conditions: glycan lost; control: WT SW620 cells.
Series [3] in a line: LARS1 immunoprecipitation, immunoblot, knock-in cells. As to conditions: glycan lost; control: WT SW620 cells, glucose starvation.
Series [4] can be described thus: immunoprecipitation and phospho-S720 immunoblot. As to conditions: glycan lost. In general terms: A western blot detects proteins with antibodies after separation by electrophoresis.
Series [5] is described as follows: lysosomal fractionation, glucose starvation. The settings on record: glycan lost; control: control siRNA.
A short description of series [6]: RagD GTP hydrolysis, GTP-agarose pulldown, glucose-starved cells. The settings on record: glycan lost; control: overexpressed WT LARS1.
Series [7] is described as follows: lysosomal fractionation, leucine added without glucose. The settings on record: glycan lost; control: overexpressed WT LARS1.
Series [8] can be described thus: in vitro GTPase assay, GTP-agarose pulldown. The settings on record: glycan lost; control: unmodified WT LARS1 with ATP and leucine.
Where [9] appears, read: control: control siRNA, glucose starvation.

For “leucyl-tRNA synthetase 1 (LARS1): S1042A with OGT1”, the structure_or_conformation result in series [1] is on record as “changes”.

For the substance “leucyl-tRNA synthetase 1 (LARS1): S1042A knock-in”, the localisation_or_trafficking entry in series [2] is listed as “increases”. Further, the “other: S720 phosphorylation by ULK1” value in series [3] is given as “decreases”.

Regarding “leucyl-tRNA synthetase 1 (LARS1): OGT1 siRNA”, the “other: S720 phosphorylation by ULK1” value in series [4] (setting [9]) is “decreases”.

“leucyl-tRNA synthetase 1 (LARS1): GFPT1 siRNA”: in series [5], the localisation_or_trafficking result was “increases”. Besides, in series [4] (setting [9]), the “other: S720 phosphorylation by ULK1” value is recorded as “decreases”.

For “leucyl-tRNA synthetase 1 (LARS1): S1042A without OGT1”, the structure_or_conformation entry in series [1] is on record as “no change”.

Regarding “leucyl-tRNA synthetase 1 (LARS1): S1042A”, the enzymatic_activity entry in series [6] is reported as “increases”. Besides, in series [7], the localisation_or_trafficking entry is “increases”. Moreover, the “other: S720 phosphorylation by ULK1” value in series [4] (control: overexpressed WT LARS1, glucose starvation) was “abolishes”.

Turning to “leucyl-tRNA synthetase 1 (LARS1): S1042A ± OGT1”, the enzymatic_activity result in series [8] is reported as “no change”.
